Measured values reported in the supplement of paper PMC9942255.
Where “and” joins values, the source holds several entries; their conditions need not be identical. Identical values can stand only once.

The sequences below were run on Bacillus subtilis DB104 (SP-AmyQ fusion secretion) (assay: AmyQ secretion efficiency, weighted average sort bin (1 = best secretion, 10 = worst) (bin number (weighted average, 1-10)); higher = lower secretion efficiency).
How it was run: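 With fluorescein-starch as substrate, a B. subtilis DB104 library expressing mature AmyQ fused to designed signal peptides (integrated at amyE) was encapsulated at about 0.3 cells per ~65 nL alginate bead. After about 13 h at room temperature, beads were nile red stained, and occupied beads were sorted by large-particle flow cytometry into 10 equally populated bins by green/red fluorescence ratio. Illumina sequencing of the amplicons in each bin was used to calculate the secretion score, which is the read-frequency-weighted average bin number, normalised to beads per bin, with low-abundance sequences left out.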

| Sequence | AmyQ secretion efficiency |
| --- | --- |
| MKKTIMFVAVAALSTTAFGAHASAKEI | 3 |
| MFKKHTISLLIIFLLASAVLAKPLEAHTV | 2.46 |
| MKKWMATGSLAAAVLLCLMVPQQIQGASS | 2.83 |
| MLKRTSFVSSSSLFISSAVLLSILLPSGQAHAQSA | 1.71 |
| MKKRLIGFLVLVPALIMSGITLIERNKK | 6.81 |
| MKVLLSALLLLLFAFSPSASGKKL | 4.69 |
| MMGKGLLAGALTATVLFGTCAVDVPGIISPKTAEAASQ | 1.48 |
| MKKIVSILFMFGGFSQFQPSTVFAADK | 4.29 |
| MGLGKKLSVAVAASFMSLSISLPGVQMAEG | 3.92 |
| MRSYIKVLTMCFLGLILFVPALADNS | 6.75 |
| MKKLLAAGIIGLLTVTLVFLVVLLSIASPSFAAEK | 2.43 |
| MKLAKRVSALTPSTTLAITAKIKEL | 7.25 |
| MKKRITYSLLALLAVVAFAFTDSSKAKAASA | 2.18 |
| MNSCSQLIVCSLAAILLLIPSVSFAADS | 4.9 |
| MRPVFPLILSAVLFLSCFFGARQTEASFSKR | 2.95 |
| MRKKKRHSRLIVLLFFSFFGVQPIHAKKQ | 7.01 |
| MKSLPYTIALLFCGLIIVSMAAKGDED | 8.1 |
| MILRKVLTGSVLSLGLLVSASPAFATSP | 1.73 |
| MKKIGLLFMLCLAALKKRRFPAQQADAAEA | 7.17 |
| MNFKKTVVSALSISALALSVSGVASGHEI | 4.67 |
| MSSCGGILIVCSLAAILLLIPSVSFAADS | 4.26 |
| MKKKQVMLALTAAAGLGLTALHSAPATKAAPL | 3.15 |
| MKKLLAAGIIGLLTVSSFAAEK | 6.74 |
| MKLKKRVSMGLVALTMCGGLFVTPAKAVKT | 2.55 |
| MKLSVKIAGVLTVAAAAMTAKMYYTAKGN | 6.5 |
| MKNMSCKLVVSVTLFFSFLKRRPLAHAQNS | 8.2 |

| Sequence | AmyQ secretion efficiency |
| --- | --- |
| MLKRTSFVSSLFISSAVLLSILRRKRRRAHAQSA | 7.6 |
| MKRKLKRKKAISALSLGLLVSAPTASFAAES | 4.1 |
| MRMLWRSLALCGLALTLALPCAQAAEP | 2.19 |
| MKKRLIAPMLLSAASLAFFAMSGSAQDAAY | 6.76 |
| MKRFSTAYLLLGILCSAAVFLIGAPSRALGDED | 6.23 |
| MKNMSCKLVVSVTLFFSFLTIGPLTHAQNS | 1.52 |
| MFNRLFRVCFLAALIMAFTLPNSPYAQKP | 7.43 |
| MKRFILVLSFLSIIVAYPIQINASPM | 2.47 |
| MKLSVKIAGVLTVAAAAMTAKMYATGKGN | 6.84 |
| MKRKLKKSLAISALSLGLLVSAPTASFAAES | 3.49 |
| MRKKTKNRLISSVLSTVVISSLLFPGAAGASSK | 1.59 and 2.27 and 1.9 |
| MKKSQYFIVFICFFVLFSRHKKAAAAADS | 6.2 |
| MTKKAWFLPLVCVLLISGWLAPAASASMQTT | 2.07 |
| MKKWIYVVLVLSIAGIGGFSVHRASS | 6.42 |
| MKRTWNVCLTALLSVLLVAGSVVPFHAEAKKP | 1.9 |
| MKVCQKSIVRFLVSLIIGTFVITSVPFMANAQSD | 3 |
| MTQFAITLSVLCALILLVPTLLVIPFQHNKEAGASV | 7.59 |
| MKKRITYSTSYQQTRVAFAFTDSSKAKAAEA | 6.55 |
| MKVLLSALLLLLFAFEPSFASGKKL | 5.58 |
| MKRLLSTLLIGIMLLITTILVSTLTFAPSAFAKQD | 1.3 |
| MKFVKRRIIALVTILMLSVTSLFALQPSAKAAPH | 2.38 |
| MRPVFPLILSAVLFLSCFFGARQTEASASSD | 1.96 |
| MKKRFSLIMMTGLLFGLTKRKKKKAFAAEK | 7.34 |
| MRGKSAVLLSLIMLIAGFLISFVFQM | 6.98 |
| MRPVFPLILSAVLFLSCFSTSVAITVTFGARQTEASASKR | 3.9 |
| MRKKRVITCVMAASLTLGSLLPAGYATAKKR | 2.88 |

| Sequence | AmyQ secretion efficiency |
| --- | --- |
| MRKKRVITCVMAASLTLGSLLAAAIASAKED | 5.2 |
| MLKRTSFVSSLFISSAVLLSILLPSGQLHAQSA | 1.71 |
| MHLIRAKKRKCRAVVLIAGCRFNEDQHQAEGENT | 5.77 |
| MKKSSYCSYQRQVILSGVALTQLS | 7.04 |
| MKKRFFGPIILAFILFAGVIAIPS | 6.86 |
| MKKQWIGMLAAAVLLLMVPKVSLADAA | 2.86 |
| MKKRKRRNFKRFIAAFLVLALMISLVPADALAKST | 1.92 |
| MKRLLVSLRVWMVFLMNWVTPDRKTPAAAVY | 7.55 |
| MRKNRILALFVLSLGLLSFMVTPSSTVSAASK | 2.01 |
| MFNRLFRVCFLAALIMAFTLPNSVYIQKP | 7.01 |
| MKLKKRVSMFLVALTMCGGLFVTPPFVAKAVKT | 4.47 |
| MKWMCSICCAAVLLAGGAKQAEAV | 2.68 |
| MKKKLAAGLTASAIVGTTLVVTPAETATI | 5.92 |
| MKKWMITIAMTMLILAGIALFVFISPLKSHKT | 1.1 |
| MRPVFPLILSAVLFLSCFFGARQTEWSASKR | 7.27 |
| MLCVMMLLFSAIAKKRRKRAQAKDQ | 7.12 |
| MKKLLAAGIIGLLTVTSIASPSFAAEK | 2.48 |
| MKLWMRKTLVVLFTIVTFGLVSPPAAIMADKP | 1.63 |
| MKVPKTMLLSTAAGLLLSLTATSVSAEEE | 2.6 |
| MNKLKRLSMLTVMIASVFIFSSHALMAQY | 7.08 |
| MGMKKKLSLGVASAALGLALVGGGTWFAFN | 7.33 |
| MLKKKWMTRGLAGCLAAGGFSYNAFATEN | 6.77 |
| MSLWMSKTLVVLFTIVTFGLVSPPAALMADKP | 2.43 |
| MKRIRIPMTLALGAALTIAPLDKASAEEN | 3.1 |
| MKSKGSIMACLILFSFTITTFINTETPSAFSN | 5.71 |
| MRKKRTSNFNMIVITCVMAASLTLGSLLPAGYATAKED | 3.08 |

| Sequence | AmyQ secretion efficiency |
| --- | --- |
| MFKKHTRKRKIIFLLASAVLAKPIEAHTV | 7.04 |
| MGLGKKLSVAVAASFMSLSISLPGQQAAEG | 3.99 |
| MSGTIFFGPIILAFILFAGAIAIPS | 6.8 |
| MRSYIKVLTMCFLGLILFVPTALAAEE | 3.07 |
| MTMLRKIIGWILLLCIIPLFAFTVIQSGKEV | 6.03 |
| MKKTIMSFVAVAALSTTAFGAHSSAKEI | 3.37 |
| MKLKKRVSMFLVALTMCGGLFVFAAKAVKT | 5.56 |
| MKKLVLCVSILAVILSGVTVALTQLS | 3.8 |
| MKKAAAVLLSLGLVFGFSYGAGHVAEAATS | 2.5 |
| MLTKRLLTIYIMLLMLIAWFPGAAQAEEK | 1.61 |
| MKKWMAGLFLAAAVLLCLMVPQQGQGASS | 6.52 |
| MKRLLSTLLIGIMLLTFAPSCFAKQD | 3.09 |
| MKTKTLFIFSAILTLSIQAPNETFAQTA | 2.35 |
| MRNLTKYYTTLAGLCTAAQMVFVTHASAEES | 3.01 |
| MKKRKKKVSSLFISSAVLLSILLPSGQAHAQSA | 1.03 |
| MSVCQKSIVRFLVSLIIGTFVISVPFMANAQSD | 1.68 |
| MRSYIKVLTMCFLGLILFVPTALCDNS | 3.89 |
| MKKERGGTYVLCLSLSPLVSTNEVFAATT | 8.09 |
| MRKKRVITCVMAASLTLGSLLPAGYATAAPR | 1.69 |
| MKKWMAGLFLAAAVLLCLMVPQQVQGASS | 3.15 |
| MRKSLITLGLASVIGTSSFLIPFTSKTHSAETL | 6.74 |
| MFKKHTISLLIIFLLASAVLAKPIEPHTV | 7.19 |
| MLTKRLLTIYIMLLGLIKKKRKKAQAEEK | 7.57 |
| MTKKGWQLPLVCVLLISGWLAPAASASAQTT | 1.79 |
| MKRSISIFITCLLITLLTMGGMIASPRSAAGT | 2.42 |
| MKVCQKSIVRFLVSLIIGTFVISVPFMANAEED | 3.09 |

| Sequence | AmyQ secretion efficiency |
| --- | --- |
| MPYLKRVLLLLVTGLFMSLFAVTATASSQTG | 1.19 |
| MAIIIAIIAAVIVIAALITFEDDEDDDRNASPG | 6.7 |
| MKLSVKIAGVLTVAAAAMTAKMYNTAKGN | 6.07 |
| MKKSQYFIVFICFFVLFSVHPIARAAADS | 3.28 |
| MLKKIALTLCPAIVGSLLFFTAPLSAHVS | 3.94 |
| MAIIIAIIAAVIVIAALITFNVRNSSPG | 8.62 |
| MKLAKRVSALTPSTTLAITAKAAED | 5.72 |
| MRSYIKVLTMCFLGLILFVPTHLADNS | 6.38 |
| MKRIRIPMTLALGAALTIAPLSFESAEEN | 5.54 |
| MKSAKSVSALTPSTTLAITAKAKEL | 6.91 |
| MKKRLIAPMLLSAASLAFFAMSGSVQAAAY | 4.49 |
| MKKAAAVLLSLGLVFGFSYGAGHVAECKTK | 4.74 |
| MPYLKRVLLLLVTGLFMSLFAVTATASLQTG | 1.81 |
| MKLAKRVSALTPSTTLAITSKAKEL | 8.31 |
| MKSKGSIMACLILFSFTITTFINTETISYFSN | 7.41 |
| MKKTIMSFVAVAALSTTAFQPHASAKEI | 2.23 |
| MKKQQYGQSKKVVLGSTLFAGAASAQSI | 7.51 |
| MNKFLKSNFRFLLAAALGISLLVLFVIFITFASSNFIKASND | 4.18 |
| MIVIILLFISIIVFLSVIQPQPD | 4.48 |
| MKRRRQRQTTLPLLIVCLAFSSFSASARAASE | 3.83 |
| MRKTIFAFLTGLMMFGTITAQSASPD | 5.11 |
| MKKGIIRFLLVSFVLFFALSTGITGFQAAPA | 5.1 |
| MKKKQVMTLNSSLALTAAAGLGLTALHSAPAAKAAPL | 4.06 |
